{
  "source": "patent US20190201494A1",
  "about": "“COMPOSITIONS AND METHODS FOR TREATING NICOTINE WITHDRAWAL” (STC UNM, priority 2016, published 2019)",
  "key": {"[1]": {"details": "cited from earlier work"}, "[2]": {"tested_on": "overnight abstinent smokers", "experiment": "Blood measurements: insulin, glucose, C-peptide, non-esterified fatty acids (Example 1)", "format": "in vivo, human", "experimental": "Blood measurements: Blood samples were analyzed for measurements of insulin, glucose, C-peptide, and non-esterified fatty acids.\nSerum insulin was analyzed on the Immulite 1000 immunoassay system (Siemens Healthcare GmbH, Erlangen, Germany). This is a solid-phase, enzyme-labeled chemiluminescent immunometric assay. The solid phase (bead) was coated with monoclonal murine anti-insulin antibody. The liquid phase consisted of alkaline phosphatase (bovine calf intestine) conjugated to polyclonal sheep anti-insulin antibody and alkaline phosphatase (bovine calf intestine) conjugated to monoclonal murine anti-insulin antibody. The patient sample and the reagent were incubated together with the coated bead for 60 minutes. During this time, insulin in the sample forms the antibody sandwich complex with the monoclonal murine anti-insulin antibody on the bead, enzyme conjugated polyclonal sheep anti-insulin antibody, and enzyme conjugated monoclonal murine anti-insulin antibody in the reagent. Unbound patient sample and enzyme conjugate were then removed by centrifugal washes. Finally, chemiluminescent substrate was added to the test unit containing the bead and the signal is generated in proportion to the bound enzyme.\nSerum glucose was performed on the ACE ALERA system (Alfa Wassermann Diagnostic Technologies, S.p.A., Bologna, Italy). An increase in absorbance of NADH is directly proportional to glucose concentration, and was measured bichromatically at 340 nm/378 nm.\nSerum C-peptide was performed on the Immulite 1000 immunoassay system (Siemens Healthcare GmbH, Erlangen, Germany). This is a solid-phase, two-site chemiluminescent immunometric assay. The solid phase (bead) is coated with monoclonal murine anti-C-peptide antibody. The liquid phase consists of alkaline phosphatase (bovine calf intestine) conjugated to monoclonal murine anti-C-peptide antibody in buffer. The patient sample and the reagent were incubated together with the coated bead for 30 minutes. During this time, C-peptide in the sample forms the antibody sandwich complex with monoclonal murine anti-C-peptide antibody in the reagent. Unbound patient sample and enzyme conjugate were then removed by centrifugal washes. Finally, chemiluminescent substrate was added to the Test Unit containing the bead and the signal is generated in proportion to the bound enzyme.\nBlood samples were collected at 12:20, 13:00, 13:40, and 14:10 and analyzed for non-esterified fatty acids using an AU 480 chemistry analyzer (Beckman Coulter, Inc., Brea, Calif.) using a NEFA-HR(2) kit (Wako Chemicals USA, Inc., Cape Charles, Va.).\nRandom coefficient models were constructed for analyzing subjective (i.e., craving and mood), blood (insulin, glucose, C-peptide and nonesterified fatty acids) and cardiovascular (blood pressure) measures. For every model, an evaluation of non-linear term was performed, and, if significance was detected, that polynomial term for time was included in the model. Treatment, time and treatment by time interaction were included as fixed effects. Time nested within subjects was included as a random effect. If an interaction was detected, post hoc comparisons were performed comparing treatment groups at each time point. Cortisol was log-transformed for the purpose of normalizing distribution. The summary measure for cortisol analysis was peak change from baseline. […] Significance values are reported as detected; no adjustments were made for multiple comparisons."}, "[3]": {"tested_on": "overnight abstinent smokers", "experiment": "Salivary cortisol response to Trier Social Stress Test (Example 1)", "format": "in vivo, human", "details": "60 IU vs placebo, F(1,35)=12.78, p≤0.001", "from_the_text": "Intranasal spray administration of insulin or placebo occurred at 12:30 PM. The purpose of the spacing time between morning check-in and nasal spray administration was stabilization of postprandial insulin levels. In a randomized fashion, the study nurse administered one spray in each nostril every three minutes for the total of six sprays of either insulin or placebo. Instructions to perform the Trier Social Stress Test were given at 13:20, and speech delivery occurred 13:30. Briefly, the Trier Social Stress Test^13 is a standardized laboratory stressor consisting of a free speech and a mental arithmetic task in front of an audience. Participants were introduced to the task and instructed to prepare a 5-minute presentation in which they were to promote their candidacy for a job. […]\nSalivary measures: Saliva samples were collected using a saliva collection kit (Salimetrics, LLC, Carlsbad, Calif.). Saliva samples were collected at 08:30, 12:20, 13:00, 13:40, 13:50, 14:00, 14:10, and 14:40, and analyzed for cortisol as follows: A microtitre plate was coated with monoclonal antibodies to cortisol using salivary cortisol ELISA kit (Salimetrics, LLC, Carlsbad, Calif.). […] Bound cortisol peroxidase was measured by the reaction of the peroxidase enzyme on the substrate tetramethylbenzidine (TMB). […] Optical density was read on a standard plate at 450 nm. […]"}},
  "note": "Entries after “also recorded” stand apart in the source; their conditions may differ.",
  "data": [
    {"substance": "intranasal insulin: bulk human Regular insulin (U100 Novolin R, Novo Nordisk US), 100 IU/ml, six nasal sprays delivering 60 IU", "values": [
      {"measurement": "CSF insulin levels and peripheral insulin levels after intranasal administration", "setting": "[1]; humans", "value": "increases CSF insulin levels without changing peripheral insulin levels"},
      {"measurement": "Time to reach the CSF", "setting": "[1]; intranasal route", "value": "within minutes"},
      {"measurement": "Glucose, effect of treatment", "setting": "[2]; 60 IU intranasal vs placebo", "value": "did not differ; also recorded: subjects remained well within euglycemic range; also recorded: minor decline in plasma glucose concentrations"},
      {"measurement": "Serum (circulating) insulin levels, effect of treatment", "setting": "[2]; 60 IU intranasal vs placebo", "value": "did not differ; also recorded: no detection of treatment effects; also recorded: no significant changes in circulating insulin"},
      {"measurement": "Serum insulin, treatment×time interaction, b", "setting": "[2]; SE(b)=0.01, z=−0.37, p=0.71, non-significant", "value": "−0.005"},
      {"measurement": "Glucose, treatment×time interaction, b", "setting": "[2]; SE(b)=0.02, z=2.60, p≤0.01", "value": 0.05},
      {"measurement": "Glucose, treatment, b", "setting": "[2]; SE(b)=2.55, z=−1.06, p=0.28", "value": "−2.72"},
      {"measurement": "Peak salivary cortisol levels following stress procedure (peak change from baseline, log-transformed)", "setting": "[3]", "value": "increased (i.e., restored) the blunted cortisol response to stress; also recorded: restores blunted cortisol response to stress"},
      {"measurement": "Peak salivary cortisol levels following stress procedure (peak change from baseline, log-transformed)", "setting": "[3]; listed as Intranasal insulin", "value": "significantly increased"}
    ]}
  ]
}
